Laboratory results published in the supplement of paper PMC10724198.

What was measured:
Saccharomyces cerevisiae [1] = assay: protein stability index of tFT-peptide fusion in wild type (PSI (0-1 scale)); higher = more stable (slower turnover); conditions: genetic background: wild type
Saccharomyces cerevisiae [2] = assay: protein stability index of tFT-peptide fusion in deletion strain of DOA10 (PSI (0-1 scale)); higher = more stable (slower turnover)
Description: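 MPS profiling in S. cerevisiae of two library types built from selected 12-aa C-degron peptides (IN1, IN2, LN1, LN3, VN2, R1-R5, W1-W3, Atg1 and Rpa12 C-termini): saturation mutagenesis libraries and C-terminal +1 capping libraries (13 aa). Each peptide is fused to the C-terminus of a sfGFP-mCherry timer, after a GGGS linker. Cells are FACS-sorted into 8 mCherry/sfGFP bins and sequenced. PSI runs from 0 (unstable) to 1 (stable), measured once in wild type and in the das1Δ or doa10Δ background.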
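Wherever protein stability index of tFT-peptide fusion in deletion strain of DOA10 is given: PSI per variant is the weighted mean of its sequencing read distribution over the sorted stability bins, counting only variants with over 10 reads summed across bins.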
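Wherever protein stability index of tFT-peptide fusion in wild type is given: PSI derived as read-weighted mean over the 8 sorting bins, only variants exceeding 10 total reads kept, mCherry placed adjacent to the peptide and sfGFP distal.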

Sequence | protein stability index (Saccharomyces cerevisiae [1]) | protein stability index (Saccharomyces cerevisiae [2])
CLVQLPILLFFR | 0.0481 | 0.597
CLVSKPILLFFR | 0.17 | 0.627
CLVSLCILLFFR | 0.23 | 0.334
CLVSLLILLFFR | 0.319 | 0.408
CLVSLNILLFFR | 0.17 | 0.323
CLVSLPIELFFR | 0.596 | 0.656
CLVSLPIKLFFR | 0.123 | 0.652
CLVSLPILCFFR | 0.0771 | 0.558
CLVSLPILLFFC | 0.0908 | 0.249
CLVSLPILLFFK | 0.0574 | 0.577
CLVSLPILLFFW | 0.252 | 0.435
CLVSLPILLFNR | 0.394 | 0.588
CLVSLPILLFVR | 0.0446 | 0.249
CLVSLPILLIFR | 0.0669 | 0.537
CLVSLPMLLFFR | 0.0605 | 0.626
CLVSLPWLLFFR | 0.144 | 0.65
CLVSNPILLFFR | 0.368 | 0.661
CLVSQPILLFFR | 0.227 | 0.628
CLVVLPILLFFR | 0.0796 | 0.451
GLQMCSVGCWFR | 0.195 | 0.656
GLTMCSVGCWFR | 0.219 | 0.674
GLVMCSVGCWFR | 0.19 | 0.45
GLYGCSVGCWFR | 0.504 | 0.683

Sequence | protein stability index (Saccharomyces cerevisiae [1]) | protein stability index (Saccharomyces cerevisiae [2])
GLYHCSVGCWFR | 0.409 | 0.674
GLYMASVGCWFR | 0.322 | 0.684
GLYMCMVGCWFR | 0.25 | 0.462
GLYMCSDGCWFR | 0.65 | 0.718
GLYMCSGGCWFR | 0.47 | 0.687
GLYMCSSGCWFR | 0.435 | 0.679
GLYMCSVGCDFR | 0.641 | 0.663
GLYMCSVGCPFR | 0.642 | 0.677
GLYMCSVGCWFC | 0.261 | 0.287
GLYMCSVGCWFH | 0.401 | 0.497
GLYMCSVGCWFN | 0.29 | 0.343
GLYMCSVGCWFRD | 0.431 | 0.649
GLYMCSVGCWFRR | 0.347 | 0.646
GLYMCSVGCWFW | 0.333 | 0.453
GLYMCSVGCWHR | 0.668 | 0.722
GLYMCSVGNWFR | 0.611 | 0.683
GLYMCSVGRWFR | 0.643 | 0.668
GLYMESVGCWFR | 0.415 | 0.703
ILYMCSVGCWFR | 0.289 | 0.486
IVTRLDAIYFRI | 0.24 | 0.612
RATRLDAIYFRI | 0.493 | 0.681
RHLRVLLPLYFR | 0.277 | 0.678
RITLPMCPLLLR | 0.296 | 0.651

Sequence | protein stability index (Saccharomyces cerevisiae [1]) | protein stability index (Saccharomyces cerevisiae [2])
RMTRLDAIYFRI | 0.429 | 0.655
RNTRLDAIYFRI | 0.529 | 0.664
RSFRVLLPLYFR | 0.162 | 0.612
RSIRVLLPLYFR | 0.225 | 0.643
RSLRVELPLYFR | 0.17 | 0.685
RSLRVLIPLYFR | 0.23 | 0.639
RSLRVLLPLCFR | 0.405 | 0.687
RSLRVLLPLFFR | 0.38 | 0.681
RSLRVLLPLMFR | 0.288 | 0.654
RSLRVLLPLYER | 0.645 | 0.658
RSLRVLLPLYFA | 0.286 | 0.413
RSLRVLLPLYFH | 0.365 | 0.583
RSLRVLLPLYFRD | 0.346 | 0.647
RSLRVLLPLYFRK | 0.293 | 0.593
RSLRVLLPLYFRL | 0.194 | 0.496
RSLRVLLPLYFY | 0.263 | 0.435
RSLRVLLPLYNR | 0.623 | 0.666
RSLRVLLPPYFR | 0.658 | 0.689
RSLRVLLPQYFR | 0.642 | 0.689
RSLRVLLPYYFR | 0.545 | 0.678
RSLRVNLPLYFR | 0.18 | 0.672
RSLRVPLPLYFR | 0.113 | 0.687
RSYRVLLPLYFR | 0.217 | 0.637

Sequence | protein stability index (Saccharomyces cerevisiae [1]) | protein stability index (Saccharomyces cerevisiae [2])
RVDRLDAIYFRI | 0.559 | 0.639
RVHRLDAIYFRI | 0.438 | 0.659
RVNRLDAIYFRI | 0.48 | 0.659
RVRRLDAIYFRI | 0.385 | 0.641
RVTCLDAIYFRI | 0.477 | 0.655
RVTRCDAIYFRI | 0.467 | 0.677
RVTRLDACYFRI | 0.532 | 0.707
RVTRLDAILFRI | 0.453 | 0.705
RVTRLDAIYFKI | 0.352 | 0.595
RVTRLDAIYFRA | 0.608 | 0.697
RVTRLDAIYFRIA | 0.0756 | 0.136
RVTRLDAIYFRII | 0.0611 | 0.127
RVTRLDAKYFRI | 0.673 | 0.709
RVTRLDAMYFRI | 0.549 | 0.698
RVTRLDARYFRI | 0.667 | 0.718
RVTRLEAIYFRI | 0.268 | 0.62
RVTRLHAIYFRI | 0.172 | 0.372
RVTRLIAIYFRI | 0.168 | 0.348
RVTRLKAIYFRI | 0.155 | 0.32
RVTRLPAIYFRI | 0.217 | 0.636
